Laboratory results published in patent US20100257638.

System: IL-1-L0-Fok1 zinc finger nuclease (IL-1-Fok1) (synthetic construct)
Experiment: cell_activity
Conditions: inter-chromosomal HR with donor pDAB1600 in tobacco NT1-240; NT1-260 0.1; BY2-380 0.2; donor only 0

ATTATCCGAGTTTAATAGAACTCGGATAAT (double strand) [IL-1-L0-Fok1 recognition site]
activity (events per selection plate): 1.2
